From patent US7803382B2, “Method for inducing immune response to NY-CO-58” (Ludwig Institute for Cancer Research Ltd., priority 2001, dated 2010)

System: sera from colon cancer patients
Assay: Spot assay: reactivity of serologically defined colon cancer antigens with colon cancer patient sera
Type: binding, human
Conditions: reactive sera/sera tested; includes autologous where applicable; sera 1:200
Protocol: Serum samples from patients with colon cancer were screened using a modification of the plaque assay, termed a spot assay. In this method, 80×120 mm nitrocellulose membranes were precoated with a film of NZY/0.7% Agarose/2.5 mM IPTG and placed on a reservoir layer of NZY/0.7% Agarose in a 86×128 mm Omni Tray (Nalge Nunc International Corp., Naperville, Ill.). Approximately 1.0×10^5 pfU of monoclonal phage encoding individual serologically defined colon cancer antigens, in a volume of 20 μl, were mixed with 20 μl of exponentially growing E. coli XL-1 Blue MRF and spotted (0.7-μl aliquots) on the precoated nitrocellulose membranes. Membranes were incubated for 15 hours at 37° C. A total of 75 different serologically defined colon cancer antigens were spotted in duplicate per nitrocellulose membrane. The agarose film was then removed from the membrane and the filters were processed for reactivity with individual serum samples (1:200 dilution), as described in Scanlan, et al., Int. J. Cancer 76:652-658 (1998) and Scanlan, et al., Int. J. Cancer 83:456-64, (1999).

Molecule	Reactivity of individual antigens
CO-26 (MNK 1): serologically defined colon cancer antigen, protein SEQ ID NO:27 (protein, listed as Homo sapiens) HIQKQKHFNEREASRVVRDVAAALDFLHTKGIAHRDLKPENILCESPEKVSPVKICDFDLGSGMKLNNSCTPITTPELTTPCGSAEYMAPEVVEVFTDQATFYDKRCDLWSLGVVLYIMLSGYPPFVGHCGADCGWDRGEVCRVCQNKLFESIQEGKYEFPDKDWAHISSEAKDLISKLLVRDAKQKLSAAQVLQHPWVQGQAPEKGLPTPQVLQRNSSTMDLTLFAAEAIALNRQLSQHEENELAEEPEALADGLCSMKLSPPCKSRLARRRALAQAGRGENRSPPTAL	2/76
TNKL (BC-203): serologically defined colon cancer antigen, protein SEQ ID NO:26 (protein, listed as Homo sapiens) QGAQRGARVGAAMGLRRSGDSREPSGPGPERVFSGGPRPPARGAGAPAPVAGAVAGCGGGQDHVGSPLRRRGSGLRDAAAEAVEPAARELFEACRNGDVERVKRLVTPEKVNSRDTAGRKSTPLHFAAGFGRKDVVEYLLQNGANVQARDDGGLIPLHNACSFGHAEVVNLLLRHGADPNARDNWNYTPLHEAAIKGKIDVCIVLLQHGAEPTIRNTDGRTALDLADPSAKAVLTGEYKKDELLESARSGNEEKMMALLTPLNVNCHASDGRKSTPLHLAAGYNRVKIVQLLLQHGADVHAKDKGDLVPLHNACSYGHYEVTELLVKHGACVNAMDLWQFTPLHEAASKNRVEVCSLLLSYGADPTLLNCHNKSAIDLAPTPQLKERLAYEFKGHSLLQAAREADVTRIKKHLSLEMVNFKHPQTHETALHCAAASPYPKRKQICELLLRKGANINEKTKEFLTPLHVASEKAHNDVVEVVVKHEAKVNALDNLGQTSLHRAAYCGHLQTCRLLLSYGCDPNIISLQGFTALQMGNENVQQLLQEGISLGNSEADRQLLEAAKAGDVETVKKLCTVQSVNCRDIEGRQSTPLHFAAGYNRVSVVEYLLQHGADVHAKDKGGLVPLHNACSYGHYEVAELLVKHGAVVNVADLWKFTPLHEAAAKGKYEICKLLLQHGADPTKKNRDGNTPLDLVKDGDTDIQDLLRGDAALLDAAKKGCLARVKKLSSPDNVNCRDTQGRHSTPLHLAAGYNNLEVAEYLLQHGADVNAQDKGGLIPLHNAASYGHVDVAALLIKYNACVNATDKWAFTPLHEAAQKGRTQLCALLLAHGADPTLKNQEGQTPLDLVSADDVSALLTAAMPPSALPSCYKPQVLNGVRSPGATADALSSGPSSPSSLSAASSLDNLSGSFSELSSVVSSSGTEGASSLEKKEVPGVDFSITQFVRNLGLEHLMDIFEREQITLDVLVEMGHKELKEIGINAYGHRHKLIKGVERLISGQQGLNPYLTLNTSGSGTILIDLSPDDKEFQSVEEEMQSTVREHRDGGHAGGIFNRYNILKIQKVCNKKLWERYTHRRKEVSEENHNHANERMLFHGSPFVNAIIHKGFDERHAYIGGMFGAGIYFAENSSKSNQYVYGIGGGTGVQFTKTDLVTFATAAALLPGNLGKVFPAVQCNENGTSPPGHHSVTGRPSVNGLALAEYVIYRGEQAYPEYLITYQIMRPEGMVDG	6/75
REN-32 (Lamin C): serologically defined colon cancer antigen, protein SEQ ID NO:25 (protein, listed as Homo sapiens) METPSQRRATRSGAQASSTPLSPTRITRLQEKEDLQELNDRLAVYIDRVRSLETENAGLRLRITESEEVVSREVSGIKAAYEAELGDARKTLDSVAKERARLQLELSKVREEFKELKARNTKKEGDLIAAQARLKDLEALLNSKEAALSTALSEKRTLEGELHDLRGQVAKLEAALGEAKKQLQDEMLRRVDAENRLQTMKEELDFQKNIYSEELRETKRRHETRLVEIDNGKQREFESRLADALQELRAQHEDQVEQYKKELEKTYSAKLDNARQSAERNSNLVGAAHEELQQSRIRIDSLSAQLSQLQKQLAAKEAKLRDLEDSLARERDTSRRLLAEKEREMAEMRARMQQQLDEYQELLDIKLALDMEIHAYRKLLEGEEERLRLSPSPTSQRSRGRASSHSSQTQGGGSVTKKRKLESTESRSSFSQHARTSGRVAVEEVDEEGKFVRLRNKSNEDQSMGNWQIKRQNGDDPLLTYRFPPKFTLKAGQVVTIWAAGAGATHSPPTDLVWKAQNTWGCGNSLRTALINSTGEEVAMRKLVR	3/75
